According to the domain aggregation screens of Martell et al. (2025):

Assay: soluble fraction after stress (log2 fold change); higher = more stays soluble; pooled small domains, quantitative proteomics
Conditions: stress: 75 degC
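Further: 20 min heating vs room temperature control held 20 min.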

Row | Sequence | soluble fraction (log2)
1 | HMALQDKYAELLTAANTMGVTNLAVAEKDGTLHVSGTAKSTADYDSLWALYDKIDPNMASGDLMMNI | 0.36
2 | HMALQDKYKELTDAATAAGVTDLQVREQDNVLYIDGTAPSGAVKDQLWAIYDKIDPNFVSGDLVLNVNVD | 0.0863
3 | HMALTLDEARTQGRVGETFYGYLVALKTDAETEKLVNDINAERKASYQQLAKQNNVSVDDIAKLAGQKLV | 0.00592
4 | HMALWFDEWKKYQDTIASADLLPDKAERDALIAQAEDRFNYWMDIYPRSASLNHSFDDLYEEHRRKIE | -1.01
5 | HMAMDYEGFKKSVYALTSIDLNAYKERQMKRRIDTLIAKNKYNGYEDYTAAIKKDKALFEEFVNYLTIN | -2.05
6 | HMAMMTKQRLIQLIHIARNDLQMDEDTYRQMLQGLTGKASTKGMDTPQLNRVLESMKKKGFRIK | -1.69
7 | HMAMNLQETVLMQLRDLILRGTFEPGQRLSEQPLAERLKASRTPVRSALVTLEQEGLIEASETGKYLVRQ | -0.821
8 | HMAMTNEEREALISEIKQTVNNSIDLKKDISDTEIKEAITQAVFERSEKSYLSIAEKQDIITAVFNSMR | 0.378
9 | HMANADVVLVDLDKEYTVDAAKFHSVVKHSPFNGFAVKGAPVLTIVRGTVVAENGEVVGQPGHSKMVRP | 0.108
10 | HMANEGWDIYKLDIRNHKQPNGEYYSEKEIQSTINNTFGKGSFNVDWKKYEKDKEYREKTNYYYFQAKYFV | -0.903
11 | HMANHIAAIHVLKSKLQMSDSDYRVLITGLTQKASTKDMSDIERQRVRDHMQGLAERMGVVK | -0.66
12 | HMANIAVTIPTGSSGDRIADILLQAGLIKDKQDFNQAVIAAGAEGKLRAGYFVIPSNATPAEIISILT | -0.521
13 | HMANILKHKNKDGVITSYTIRVYHGYDEAGKRLRPYTMNYKPAPNMTARQIEKELNRQAVQFEEQIKNGYA | -0.892
14 | HMANKLTSTNLAKQHKMGLSEMYAELMNSGYLIEKDGKYELTPLGISIGGESKPNRYKKGEFYFLWPSDIS | -0.618
15 | HMANLLNLREIPVANIRPELTMFLIPGENITQAFQTIRDQVVFTNKRLIVANVQGLTGKKVSYTSYPY | -0.38
16 | HMANPFQELTERELDVLRQVAAGKNNREIAEALFIGEKTVKTHISNILSKLHLADRTQAAVYAWQQGMM | -0.223
17 | HMANTVVMPNLLGKTMTEAKIELKELGIDITLKGSESSSKYSAGQIMEQNIAEGTKVEVGSSVEVTIAGS | -0.579
18 | HMAPAPDEAFAEFVRSSAPSLTRTAWLLTGDRGHAQDLVQNAYAKTLQAWGRLDAEGALAYTRRAVIT | 0.174
19 | HMAPDGIEDKEGWLKVLPMITNLSIQMQNLQARGMDYEHIRNLLHETLLRYDDRIDSNLFIPNV | -0.059
20 | HMAPDNDELEKAKKIVNAFIEAKAKGLGVVSLGTKMIDAPVVKRAQKIIDQTIVMGKLSLNWQDEFFN | -0.208
21 | HMAPEVTVHDGSIVVRGHVGGVTVYDESGRQIASVQSRGAVAIPVPAGHTYLYIVKPEGKPAIKVRAAH | -0.265
22 | HMAPKSALKIIEQISNNPRATMTDLANLTGYSRRWVAQTIKRLQEENIIKRIGSDKSGYWEIIG | -0.807
23 | HMAPLATLEADGNGAVKLPNLAGHAIREVAAALGGANLALIPIGSGTSWKQNPAPGTILHKGDTVTVYF | 0.153
24 | HMAPLEPLTDRETEMLVRLANGASNKVMARESFVSENTIKFHLKNIYAKLGVTSRLQAIAAARNQGLI | -1.31

Row | Sequence | soluble fraction (log2)
25 | HMAPLRTQYVNVNYANAAEIKTLISGADKEVGSLLSERGSVVVDKRTNTLIIQDTQARLNDIGDLIEQLD | 0.144
26 | HMAPMYGEFENVRLTDAQLDKLNARFPPEQVQREIEALSGYMRSKGKRYADHYATLLNWLRRDFPP | -0.238
27 | HMAPNVEENSKLIGEIGMTLTPLRPSGIATINNRRVDVVSNGDFIDQDERVMVKRVQGARVVVIPV | 0.168
28 | HMAPPDFTTFMRNYQDMVYSTAVRLIGNETQAEDIAQEVFIKAHAHFENLRTSPSAGGWLKTVATNLSIN | -1.2
29 | HMAPQAETLLRQVMALPSKDRAVLYLHYYEGFSTREVGDMLHISQSAVTTRLLRARKKLKEIL | -0.122
30 | HMAPRLTERERQVLQLIAEGLTSMQIGDRLHIAASTVDVHRRNLMRKLDLHNVADLTRYAITQGISP | -0.792
31 | HMAPRQDIAYYTVKPGDTVLAIAEKFGLQPETLMWSNSIIEQNPDRLSIGDELRILPVDGVLHVVK | 0.129
32 | HMAPRSSAVYFYLSQVALKKNQPRKAEAMARRGLTVSQDANRRRALWQLILRSGQAQNNTRVIREAQQAL | -0.0212
33 | HMAPSLSEYAYEEIKHAIERGVYPPGAKLITQEIADRLGISRTPVVAAVNRLTAEGYADAVPQHGIFVK | -0.073
34 | HMAPVLTRREHEVLHLLTDGLDNRTIARNLFISEATVKFHLHNIMGKFGVHRRAALVSTALRG | -2.22
35 | HMAPVTPEERAQAMEEYKAMVTIEGYTPPKNIIEQNYKRGLWSETMLNMAVTKGAITEAEKLEIMN | 0.463
36 | HMAQIVNLPRKNVNGASYYYYEVQPKETIYSISRKLGVSGAEIQRHNPSVADGLKIGQVLYFPAEG | -0.0642
37 | HMAQLPADMSKVKSADISEAQLQEFIQKATSSGYNMNQIEMEFAKRGMSENEVSLLRPRLRRLMAS | -0.0413
38 | HMAQLSDDEQAIIDTITRRGDATMSELIASVNVSTPRLMSMLIDMEFRSLITALPGGRYQIRLIN | -1.54
39 | HMAQLTPREREVLVLIAEGKSNKEIADQLNIGVRTIETHRERIMRRLNIHSVAGLTKYAIANGLVTL | -0.36
40 | HMAQPIPSGADIRAAREAAGMTLRRFAEYIAGPDFSTWSRYETGKPIRVKNISPEVWQRVRKFIAQNKG | -0.33
41 | HMAQQEMEIIPLRHRQVEQVMPTLRPLLEPGAALSGMNNQLILRASRKNREEIKQALAVIDT | 0.0427
42 | HMAQSEDLMVMAQRILGGPEAQSFFQAEATRQGLAGFLPEPIPDFLQRLERKLSGSVGSATAHAMVAQTMG | 0.0569
43 | HMAQSLAQKINNYILTNRSSIANVAKSIGYSRTTVSRYLAGKYDSDPTDLENKLAEFLAHETGE | -0.253
44 | HMAQTEIIRVTKDIKKGDAITADKFEKVKVGAYNLPGNVVKNADELKGKFAAADLVRGDYILTSKLTDNP | 0.183
45 | HMAQVRSTVERRENGTYTVELNLNDDVDNVMRLQLMVATKEMAEDLAQRFQKNPEQVYSQLVTALYG | -0.723
46 | HMAQVSDDAELEKWADTAIDEHPKPVEEYRAGNAASINFLMGQVMKMSRGKANPGAVMQILKQKLD | 0.0191
47 | HMAQVSDTGAIAKIVADAIAANPKQVQQYLDGNEKVLMYLVGQVMKLSKGKANPPMVIQLLKEQLG | -0.125
48 | HMAQVSDTGELEGVVDGVLAANAKSVADFQAGKENAFQYLIGQVMKETKGKANPEVVATLLRTKLS | -0.523

Row | Sequence | soluble fraction (log2)
49 | HMARAGKLAQDMAVWTKETMLNTERNFISLRHFKRELLRRTLAPGESEQTVRAMEEAGYIQVKDGLVFPIK | -2.43
50 | HMAREQISVSQMVRDVRDGQVKNIEVLGQELRLSYADGSQKVTRKEEGQQALEILFASDIDLAALDLEVQ | -0.0792
51 | HMARIDYHAMDSDDLSFSEGELLEIYDKPGSFWWKGRSLVSGDEGDIPS | -0.0708
52 | HMARKFQKDTGYLNKKERTWLLDFFPSLKKYLYTGAYIRSIIVVESNVTYTDKELPSNYTFTYKFA | -0.522
53 | HMARKISVEALGKYFPNSPMLAAAVAVTGVMKKDEFIHEMRASYKHKFAKKPEVIDGNMKALTMTFEA | 0.11
54 | HMARNHYETLGVGRTATGDEIRKAYRSEAQKHHPDRGGDAERMQSLNEARDTLLDDQARAAYDQELDL | 0.154
55 | HMARPLLSPREQDVLALIARGFSYSEVARLQAVTVHTIRTHIRNLYAKLSVHSKTEAVFEATRMGLLP | -1.94
56 | HMARRKRDIDSDINVKVFEHWLDNLDSASRESFSAFAEETFSPIQVYLYAKFLGYESSIIAVDHWVAVAYP | 0.135
57 | HMARSVAEFVERGRSGGSLERPKLQRMLEYIQDRPVDFVIVHKIDRLARNRADDAAITKTIRGAGAYLVST | 0.1
58 | HMARTGSEELVGALATVREPLAPWGQVFVQGALWRARSADGGPVDAGQQVVVRAVEGLTLVVEPRD | -0.143
59 | HMARYSMLEEQLLQLINKHGTMSTPKLVEATGAPRSTVTYQLRKLLESGTIERTQPARSPKQSYRIKS | -0.416
60 | HMASATGVVTAASLNVRSGAGTNYSVVNTLAKGTKVTVLNTADGWYEIEATVNNEKITGYVSATYIAMD | -0.538
61 | HMASLSRRELEVLELLALRLTVKEVAERLVISELTAKRHTSNIYQKLGVNRRRDALAAAQARGLLGAR | -3.18
62 | HMASRSQTEIMHLLSSGLPKHELVTALQSLLGISKPTAYKYLSQDVSIAYDHMVKILEYPPFQRVLYQ | -1.93
63 | HMASSVKAPLPGVILDIKVKVGDTIKNGDTVVILEAMKMENNIHSDKDGVVKSIEVNKGDSVLEGATLLTI | 0.33
64 | HMASVDDILDRFKQAAKVTTDADLAKVLGLSRQSIAAARLRAKIPASWFPKMSSLFNISTEWLYRG | -1.18
65 | HMASVRPVAPPDPKTHTRLTYRIRRGDTLERIGRRYRVSIAEIQAWNTLRDPGDILAGQRLVIWIPTS | -2.33
66 | HMATAPQIRAIYALGSKLGINQNSREDNLHQLVYSITGKESIKGLTNYEAARVQSELANMERK | 0.323
67 | HMATEPLQPRVEVLGSTLATTNGARIVGVYDMSGREVSATQLSKGVYIVKVTNGSVTATQKVFI | -0.477
68 | HMATETMGMIIRRLRREHGLTQEELAASIGVTAQAVSKWEKDLGMPDISQIVPLAGAFNVRTDVLFGLE | -2.65
69 | HMATEWLSSKEAAQRLGVSAATLYAYVSRGLLRSEGSSGQRERRYRADDVAQLRRRREVGRKAESIAASTL | -1.31
70 | HMATHWHITPNPNNGKFLISGLMQDDSFHLMDASGQWLRQLRTVNQELDLDLQPGVYFLKDNSGSVMKFVV | -1.13
